Source: publication PMC7059380, “In vivo visualization of the i-motif DNA secondary structure in the Bombyx mori testis”

Key:
BmILF [1] = target: T1, BmILF (Bombyx mori, UniProt A0A1U9WZ16 1-382); assay: EMSA; EMSA: 20 ul, 2.5% glycerol, 0.05% NP-40, 5 mM MgCl2, 4 mM EDTA, RT 20 min; probes folded in 50 mM Tris-TAE pH 4.0 (also 6.0, 8.0). MST: NanoTemper buffer with 100 mM Tris pH 6.0, 2.93-6000 nM BmILF, 25 C; settings: protein: recombinant, label: 5' biotin
T1 sequence: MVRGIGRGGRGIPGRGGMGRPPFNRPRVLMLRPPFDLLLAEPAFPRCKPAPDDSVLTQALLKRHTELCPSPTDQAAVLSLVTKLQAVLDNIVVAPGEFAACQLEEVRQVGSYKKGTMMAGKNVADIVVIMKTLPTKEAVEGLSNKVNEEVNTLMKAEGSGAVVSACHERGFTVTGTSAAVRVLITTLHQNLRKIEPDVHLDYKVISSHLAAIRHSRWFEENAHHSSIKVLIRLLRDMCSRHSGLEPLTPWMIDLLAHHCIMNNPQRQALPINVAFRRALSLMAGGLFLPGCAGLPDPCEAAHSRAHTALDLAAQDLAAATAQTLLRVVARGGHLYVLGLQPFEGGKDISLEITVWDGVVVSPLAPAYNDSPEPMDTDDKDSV

BmILF [2] = target: T1, BmILF; assay: EMSA; pH 4.0; EMSA: 20 ul, 2.5% glycerol, 0.05% NP-40, 5 mM MgCl2, 4 mM EDTA, RT 20 min; probes folded in 50 mM Tris-TAE pH 4.0 (also 6.0, 8.0). MST: NanoTemper buffer with 100 mM Tris pH 6.0, 2.93-6000 nM BmILF, 25 C; settings: protein: recombinant; label: 5' biotin; no i-motif by CD
BmILF [3] = target: T1, BmILF; assay: MST; pH 6.0, 50 nM probe; EMSA: 20 ul, 2.5% glycerol, 0.05% NP-40, 5 mM MgCl2, 4 mM EDTA, RT 20 min; probes folded in 50 mM Tris-TAE pH 4.0 (also 6.0, 8.0). MST: NanoTemper buffer with 100 mM Tris pH 6.0, 2.93-6000 nM BmILF, 25 C; settings: protein: recombinant; label: Cy5; i-motif (folded at pH 4.0)
BmILF [4] = target: T1, BmILF; assay: EMSA; Hill fit; EMSA: 20 ul, 2.5% glycerol, 0.05% NP-40, 5 mM MgCl2, 4 mM EDTA, RT 20 min; probes folded in 50 mM Tris-TAE pH 4.0 (also 6.0, 8.0). MST: NanoTemper buffer with 100 mM Tris pH 6.0, 2.93-6000 nM BmILF, 25 C; settings: protein: recombinant; label: 5' biotin; i-motif (folded by slow cooling at acidic pH)

B1: Hairpin (structured_DNA)
DNA: CAGTGGCGGCCATCCGTTTAATATTACCGGATGGCCGCGCGAT
binding result (BmILF [1]; hairpin): no binding

B2: BmPOUM2-Mut (ssDNA)
DNA: TTGTTGTACTGCTACTCGGATCACTCGAGCATCGTACTGG
binding result (BmILF [2]): no binding

B3: BGIBMGA003213-Mut (ssDNA)
DNA: CATTGCGATATCAGCGTTATCAGTATCAAT
binding result (BmILF [2]): no binding

B4: BGIBMGA003213-WT i-motif (MST) (structured_DNA)
DNA: CCCCGCGCCCCCCGCGTCCCCCGCACCCCC
Kd (BmILF [3]): 0.367 µM

B5: BGIBMGA003213-WT i-motif (EMSA) (structured_DNA)
DNA: CCCCGCGCCCCCCGCGTCCCCCGCACCCCC
Kd (BmILF [4]): 0.078 µM

B6: BmPOUM2-G4 (structured_DNA)
DNA: CCAGTGCGGGGCGCGAGGGGGCCGAGGGGCGGGGCAACAA
binding result (BmILF [1]; G4): no binding

B7: BmPOUM2-WT i-motif (EMSA) (structured_DNA)
DNA: TTGTTGCCCCGCCCCTCGGCCCCCTCGCGCCCCGCACTGG
Kd (BmILF [4]): 0.119 µM

B8: BmPOUM2-WT i-motif (MST) (structured_DNA)
DNA: TTGTTGCCCCGCCCCTCGGCCCCCTCGCGCCCCGCACTGG
Kd (BmILF [3]): 0.43 µM

B9: BGIBMGA003213-G4 (structured_DNA)
DNA: GGGGGTGCGGGGGACGCGGGGGGCGCGGGG
binding result (BmILF [1]; G4): no binding
